Results on three molecules are retold here after patent US20260217818A1 (Y BIOLOGICS, published 2026).

The chains are these.
T1: human claudin-18.2 (claudin-18 spliced variant 2, CLDN18.2) overexpressed on HEK293E/18.2 or CHO-K1/18.2 cells (human, UniProt P56856 1-261)
T1 sequence: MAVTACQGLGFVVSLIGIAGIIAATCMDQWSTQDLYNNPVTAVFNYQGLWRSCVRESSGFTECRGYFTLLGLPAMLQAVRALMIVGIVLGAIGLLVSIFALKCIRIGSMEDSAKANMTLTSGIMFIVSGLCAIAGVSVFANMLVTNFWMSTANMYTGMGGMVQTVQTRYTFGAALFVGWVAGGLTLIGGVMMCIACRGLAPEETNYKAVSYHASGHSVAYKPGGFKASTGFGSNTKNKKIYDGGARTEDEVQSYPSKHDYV

T2: human CLDN18.1 protein (EUPROTEIN, #EPY255141), coated antigen (human, UniProt P56856 1-261, limits assumed)
T2 construct: Bought antigen; also called CLDN18.1 antigen
T2 sequence (looked up): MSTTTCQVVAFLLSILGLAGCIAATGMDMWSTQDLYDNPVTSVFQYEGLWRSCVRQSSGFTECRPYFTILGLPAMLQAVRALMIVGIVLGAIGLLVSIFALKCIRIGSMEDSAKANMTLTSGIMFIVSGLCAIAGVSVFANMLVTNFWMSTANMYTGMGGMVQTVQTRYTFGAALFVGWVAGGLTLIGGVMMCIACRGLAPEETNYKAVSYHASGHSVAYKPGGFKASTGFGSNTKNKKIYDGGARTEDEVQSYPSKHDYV

T3: human CLDN18.2 protein (CUSABIO, #CSB-MP005498HU (A5)), coated antigen (human, UniProt P56856 1-261)
T3 construct: also called CLDN18.2 antigen; CLDN18.2-VLPs antigen
T3 sequence: T1 sequence

B1: 0058-002 (antibody, V domains shown)
VH: QMQLVESGGGLVQPGGSLRLSCAASGFTFSSYAMSWVRQAPGKGLEWVSAISGSGGSTYYADSVKGRFTISRDNSKNTLYLQMNSLRAEDTAVYYCARGLGYYYYGMDVWGQGTTVTVSS
VL: DIQMTQSPSSLSASVGDRVTITCRASQTVSSWLAWYQQKPGKAPKLLIYAASSLQSGVPSRFSGSGSGTEFTLTISSLQPEDFGTYYCQQYHSFPPTFGGGTKVGIK
notes: scFv clone from a human phage library, converted into IgG form for the experiments; also called anti-CLDN18.2 antibody 0058-002; monoclone 0058-002
B2: 0058-001 (antibody, V domains shown)
VH: QVQLVESGGGLVQPGGSLRLSCAASGFTFSSYAMSWVRQAPGKGLEWVAAISGSGGSTYFADSVRGRFTISRDNPQSTLYLQMNSLRAEDTAVYYCAKEGVWWLRYFDHWGQGTPITVSS
VL: QSALTQPRSVSGSPGQSVTISCTGTSNDVGGYTYVSWYQQHPGKAPKLMIYDVSKRPSGVPDRFSGSKSGNTASLTISGLQAEDEADYYCSSYAGSYTWVFGGGTKLTVL
notes: scFv clone from a human phage library, converted into IgG form for the experiments; also called anti-CLDN18.2 antibody 0058-001; monoclone 0058-001
B3: 0058-003 (antibody, V domains shown)
VH: QVQLVQSGGGLVQPGGSLRLSCAASGFTFSSYAMSWVRQAPGKGLEWVSAISGSGGSTYYADSVKGRFTISRDNSKNTLYLQMNSLRAEDTAVYYCARGAASSYYFDYWGLGTTVTVSS
VL: DIQMTQSPSSLAAYVGDTVTITCRASAGVRNYLAWVQQKPGKAPRSLIYGAFKLQSGVPSRFSGSGSGTEFTLTISSLQPEDFGTYYCQQYHSFPPTFGGGTKVDIK
notes: scFv clone from a human phage library, converted into IgG form for the experiments; also called anti-CLDN18.2 antibody 0058-003; monoclone 0058-003

The first experiment concerns the target T1, human claudin-18.2 (claudin-18 spliced …). In words: cell-based or functional assay.
As for B1, the “cellular internalization (IncuCyte FabFluor, HEK293E/18.2 cells)” value came out at 50%.
On the same count and under the same terms, the result for B2 reads 50%; that for B3, 50%.

The target in the next experiment is T2, human CLDN18.1 protein (EUPROTEIN, …). In words: ELISA, CLDN18.1 coated at 1 µg/mL, serially diluted antibody. The protocol: (§1) CLDN18.1 (EUPROTEIN, #EPY255141) and CLDN18.2 (CUSABIO, #CSB-MP005498HU (A5)) proteins were each prepared at a concentration of 1 μg/mL using a dilution buffer (4% skim milk/0.05% tween-20/PBS), and 100 μL of each was added to individual wells of an immunoassay plate (Thermo, #439454) and incubated statically at 4° C. for more than 16 hours. After three washes with 300 μL of wash buffer (0.05% tween-20/PBS), 200 μL of blocking buffer (4% skim milk/0.05% tween-20/PBS) was added to the wells and incubated for 1 hour at room temperature. After three washes, 100 μL of the anti-CLDN18.2 antibodies, each prepared by serial dilution, was added to each well and incubated at room temperature for 1 hour with rocking. After three washes, 100 μL of anti-human kappa-HRP (Sigma, #A7164) antibody, prepared at dilution ratio of 1:3,000, was added to each well and incubated at room temperature for 1 hour. After three washes, 100 μL of TMB substrate (Sigma, #T0440) was added to each well and incubated in the dark at room temperature, and when color development was observed, 50 μL of stop solution (1N H₂SO₄) was added to stop the reaction. Absorbance was measured using a microplate reader (Promega, GM3000).
Consider B1, for which the binding result is reported as “no binding”.
On the same count and under the same terms, the result for B2 reads “no binding”; that for B3, “no binding”.

The next experiment concerns the target T3, human CLDN18.2 protein (CUSABIO, …). The experiment can be described thus: ELISA, CLDN18.2 coated at 1 µg/mL, serially diluted antibody. The protocol:
as §1
Regarding B1, the binding result was “binds”.
Still for that read-out and setting: the result for B2 reads “binds”; that for B3, “binds”.

A further experiment concerns the target T1, human claudin-18.2 (claudin-18 spliced …). In words: cell-based or functional assay. This is another data set of the same source.
Consider B1, for which the “Cell viability (%) at 10 nM, HEK293E/18.2 (Fab-ZAP assay)” value came to 58% and the “IC50 (nM), HEK293E/18.2 (Fab-ZAP assay)” value is 0.04 nM.
In the same order, the values of B2 are 76% and 0.1 nM.
Turning to B3, the “Cell viability (%) at 10 nM, HEK293E/18.2 (Fab-ZAP assay)” value stood at 56% and the “IC50 (nM), HEK293E/18.2 (Fab-ZAP assay)” value amounted to 0.04 nM.
